This is an account of results in patent EP4703382A1 (Kanglitai Biomedical (Qingdao) Co., Ltd., dated 2026).

Where “and” joins values, the source holds several entries; their conditions need not be identical. Equal values may be shown once. Read-outs that look alike come from different tables or passages of the source.

For assay [1], the target named is T1, human PDL1-Fc fusion protein (human).
T1 construct: also called human PDL1-Fc recombinant protein
Description: ELISA, human PDL1-Fc coated 200 ng/well, anti-His HRP. In general terms: ELISA stands for enzyme-linked immunosorbent assay.

For a further assay, the target named is T2, HAS (UniProt P02768 25-609).
T2 construct: unrelated protein of the specificity ELISA; label read as HSA
As to the kind of experiment: ELISA, 200 ng/well coated, anti-His HRP.

For the next assay, the target named is T3, BSA (UniProt P02769 25-607).
T3 construct: unrelated protein of the specificity ELISA
T3 sequence (P02769 25-607 limits assumed): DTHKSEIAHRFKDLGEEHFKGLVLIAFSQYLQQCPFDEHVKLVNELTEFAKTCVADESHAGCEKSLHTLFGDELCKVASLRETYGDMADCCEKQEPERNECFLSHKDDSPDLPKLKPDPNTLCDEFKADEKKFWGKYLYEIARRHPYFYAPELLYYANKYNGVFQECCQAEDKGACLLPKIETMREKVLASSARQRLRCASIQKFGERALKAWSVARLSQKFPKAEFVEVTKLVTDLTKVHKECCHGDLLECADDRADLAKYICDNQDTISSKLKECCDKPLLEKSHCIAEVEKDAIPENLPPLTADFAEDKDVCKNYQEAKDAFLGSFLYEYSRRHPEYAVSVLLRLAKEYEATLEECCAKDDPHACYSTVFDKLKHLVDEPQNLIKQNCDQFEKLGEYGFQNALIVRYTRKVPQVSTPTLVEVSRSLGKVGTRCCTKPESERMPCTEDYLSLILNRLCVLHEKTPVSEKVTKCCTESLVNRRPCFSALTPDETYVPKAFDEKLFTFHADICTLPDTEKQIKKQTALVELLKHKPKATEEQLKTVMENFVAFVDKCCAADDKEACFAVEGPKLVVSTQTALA
As to the kind of experiment: ELISA, 200 ng/well coated, anti-His HRP.

For assay [2], the target named is T4, human PD-L1 expressed on Raji cells (human, UniProt Q9NZQ7 19-290).
T4 construct: whole, on cells; also called Raji-PDL1; PDL1 protein expressed on Raji cells
T4 sequence (Q9NZQ7 19-290): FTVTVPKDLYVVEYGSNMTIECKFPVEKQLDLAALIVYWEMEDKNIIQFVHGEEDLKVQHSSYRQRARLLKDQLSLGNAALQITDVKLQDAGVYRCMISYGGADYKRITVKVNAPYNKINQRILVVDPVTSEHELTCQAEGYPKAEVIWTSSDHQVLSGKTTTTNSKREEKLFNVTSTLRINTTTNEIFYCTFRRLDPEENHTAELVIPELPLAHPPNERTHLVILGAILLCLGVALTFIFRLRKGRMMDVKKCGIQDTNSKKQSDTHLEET
Description: flow cytometry competition on Raji-PDL1 cells, competitor PD1-Fc. On the technique in general: Flow cytometry measures light scatter and fluorescence of single cells or particles in a stream.

Assay [3] deals with T1, human PDL1-Fc fusion protein. As to the kind of experiment: ELISA, human PDL1-Fc coated 200 ng/well, anti-His HRP. The source holds these as a separate data set.
The target is the same in assay [4]. As to the kind of experiment: BLI (ForteBIO Octet QKe), PDL1-Fc loaded, analyte 100 nM.
For assay [5], the target named is T4, human PD-L1 expressed on Raji cells. Description: flow cytometry on Raji cells expressing human PD-L1, anti-His FITC.
Assay [6] deals with T5, recombinant protein PD-L1-His (human, UniProt Q9NZQ7 19-238).
T5 construct: also called PD-L1-his fusion protein; human PDL1-his protein
T5 sequence (Q9NZQ7 19-238 limits assumed): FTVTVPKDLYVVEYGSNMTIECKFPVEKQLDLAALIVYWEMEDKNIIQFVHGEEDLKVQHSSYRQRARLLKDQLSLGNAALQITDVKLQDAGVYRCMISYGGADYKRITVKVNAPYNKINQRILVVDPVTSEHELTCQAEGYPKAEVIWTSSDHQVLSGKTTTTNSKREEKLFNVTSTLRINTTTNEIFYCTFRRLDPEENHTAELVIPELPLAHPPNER
As to the kind of experiment: competitive ELISA, PDL1-his coated, competitor PD1-Fc 50 µg/mL.

Assay [7] deals with T1, human PDL1-Fc fusion protein. As to the kind of experiment: ELISA, human PDL1-Fc coated 200 ng/well, anti-His HRP. The source holds these as a separate data set.
Assay [8] shares this target. Description: BLI (ForteBIO Octet QKe), PDL1-Fc loaded, analyte 100 nM. The source holds these as a separate data set. For orientation: BLI is a label-free optical method that tracks binding on a fibre tip over time.
Assay [9] concerns the target T4, human PD-L1 expressed on Raji cells. As to the kind of experiment: flow cytometry competition on Raji-PDL1 cells, competitor PD1-Fc. The source holds these as a separate data set.
The target in assay [10] is T5, recombinant protein PD-L1-His. As to the kind of experiment: competitive ELISA, PDL1-his coated, competitor PD1-Fc 50 µg/mL. This is another data set of the same source.

T1 sequence (chain, as listed by the source limits assumed): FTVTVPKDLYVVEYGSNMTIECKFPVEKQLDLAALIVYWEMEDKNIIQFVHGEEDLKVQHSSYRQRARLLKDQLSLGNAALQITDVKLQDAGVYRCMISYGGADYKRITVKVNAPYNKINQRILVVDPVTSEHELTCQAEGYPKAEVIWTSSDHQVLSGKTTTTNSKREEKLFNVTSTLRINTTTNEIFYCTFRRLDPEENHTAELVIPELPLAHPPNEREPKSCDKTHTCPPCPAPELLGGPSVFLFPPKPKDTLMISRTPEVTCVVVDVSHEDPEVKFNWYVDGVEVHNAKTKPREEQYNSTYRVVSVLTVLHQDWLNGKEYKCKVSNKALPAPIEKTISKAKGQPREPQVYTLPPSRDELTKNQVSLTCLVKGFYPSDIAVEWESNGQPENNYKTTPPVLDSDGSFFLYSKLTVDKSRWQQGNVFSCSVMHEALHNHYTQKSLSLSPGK

B1: PDL1-13 (VHH)
VHH: QVQLQESGGGLVQPGGSLRLSCAASGFTFSTSFVSWVRQAPGKGLEWVSRISPGGASTSYADSVKGRFTISRDNAENTLYLQMNSLKPEDTALYYCAREIYSGRFSGFDYWGQGTQVTVSS
notes: Alpaca nanobody expressed in E. coli, His-tagged
Broadly, the EC50 is the concentration that produces a half-maximal response. With B1, the EC50 in [1] amounted to 0.0661 µg/mL. The binding result with HAS and with BSA was “no binding (tested: 0.2 µg)” throughout.

B2: PDL1-1 (VHH)
VHH: QVQLQESGGGLVQPGGSLTLSCAASGFTVSNSAVSWARQAPGKGLEWVSLIDSNRNTVYAQSVRGRFTISRDNVKNTVYLQMNSLKPEDTAVYYCAKGIWGSTLTGQGTQVTVSS
notes: Alpaca nanobody expressed in E. coli, purified on HisTrap and detected with anti-His antibody; also called PD-L1-1 heavy chain single-domain antibody; P1
As a reminder, the IC50 is the concentration that gives 50% inhibition. The Kd is the constant that tells how readily two partners part at equilibrium. A high value points to weaker binding. One may read the koff as the rate constant with which the complex falls apart. In general, kon refers to a measure of how fast the partners come together. High values mean fast association, low ones slow association. With B2, the IC50 is 0.477 µg/mL in assay [2], 2.32 µg/mL in assay [6], 0.0626 µg/mL in assay [9] and 5.8 µg/mL in [10]. Further, the EC50 in assay [3] was 0.0421 µg/mL and 3.48 nM; in assay [5] it was 0.0606 µg/mL; in assay [7], 0.00825 µg/mL. Further, the Kd in [4] turned out to be 2.96 nM; in [8] it was 3.39 nM. Further, the koff is 0.00532 s⁻¹ in assay [4] and 0.00563 s⁻¹ in assay [8]. The kon in [4] was determined as 1.8e+06 M⁻¹ s⁻¹; in assay [8] it was 1.66e+06 M⁻¹ s⁻¹. Further, the binding result with HAS and in the assay with BSA was “no binding (tested: 0.2 µg)” in each case.

B3: PDL1-14 (VHH)
VHH: QVQLQESGGGLVQPGGSLRLSCAASGIISDINMVAWYRQAPGKQRELVAKIFRGGSTYYTDFVKGRFTISRENAKNTVYLQMNSLKPDDTAVYYCNARIQIRADRDYSDYWGQGTQVTVSS
notes: as for B1
In assay [1], B3 showed an EC50 of 0.123 µg/mL. Moreover, the binding result with HAS and with BSA was “no binding (tested: 0.2 µg)” in each case.

B4: PDL1-3 (VHH)
VHH: QVQLQESGGGLVQPGGSLRLSCAGSGSIFRITPVAWYRQAPEKQRELVAVITDNGSTDYGDFVKGRFTISRDNAKNTVYLQMNSLKPEDTAVYYCNSRARPVRWTWGQGTQVTVSS
notes: as for B1
With B4, the EC50 was determined as 0.073 µg/mL in [5] and 0.0128 µg/mL in assay [7]. For the same molecule, the IC50 in [6] amounted to 1.31 µg/mL; in assay [9], 0.0406 µg/mL. For the same molecule, the binding result with HAS and with BSA was “no binding (tested: 0.2 µg)” in each case.
